The numbers were not newly measured in article PMC4628734, which cites them from elsewhere.

Usually Kd stands for the constant that tells how readily two partners part at equilibrium.

The target of this data set is Cdc25C (Homo sapiens) (UniProt P30307).
Chain of UniProt P30307 (P30307 whole entry, looked up): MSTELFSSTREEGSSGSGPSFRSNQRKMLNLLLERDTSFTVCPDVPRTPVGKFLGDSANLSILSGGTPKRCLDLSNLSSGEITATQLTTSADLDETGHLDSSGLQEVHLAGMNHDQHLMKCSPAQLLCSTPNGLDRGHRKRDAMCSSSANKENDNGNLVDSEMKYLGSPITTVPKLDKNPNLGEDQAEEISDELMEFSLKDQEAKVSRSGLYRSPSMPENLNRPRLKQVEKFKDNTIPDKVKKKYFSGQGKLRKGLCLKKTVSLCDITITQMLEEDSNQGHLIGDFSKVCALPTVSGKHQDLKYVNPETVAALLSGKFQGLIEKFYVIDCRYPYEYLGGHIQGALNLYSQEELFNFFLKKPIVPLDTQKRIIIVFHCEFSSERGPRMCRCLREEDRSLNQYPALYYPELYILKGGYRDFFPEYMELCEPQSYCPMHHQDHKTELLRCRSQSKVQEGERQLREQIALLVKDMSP

In the case of PLK-1 PBD (from UniProt P53350), the Kd is 1800 nM.
